Assay results published in patent US11319368B2, “Treatment of hepatotoxicity with IL-11 antibody” (Singapore Health Services PTE LTD., priority 2019, dated 2022).
“Also recorded” adds a separate entry of the source.

Experiments:
NOX4 = target: T1, NOX4 (Homo sapiens, UniProt Q9NPH5); assay: NOX4 inhibitor in rhIL11-stimulated human hepatocytes; format: cell-based; details: rhIL11 10 ng ml^-1, 24 h
T1 construct: Human hepatocytes (5200, ScienCell) were maintained in hepatocyte medium; host or cells: primary human hepatocytes

human hepatocytes [1] = assay: APAP-mediated activation of Erk and Jnk, western blot; format: cell-based; details: APAP 10 mM, 24 hours; X209 2 μg/ml
AILI [2] = assay: X209 preventive dosing 16 h prior to APAP in mice (6.8)
Protocol: (§1) Mice were administered anti-IL11Rα (X209) or IgG isotype control antibody at different times and doses, as described above or in the figure legends.
(§2) The levels of alanine transaminase (ALT) or aspartate aminotransferase (AST) in mouse serum and hepatocyte supernatant were measured using ALT Activity (ab105134, Abcam) or AST (ab105135, Abcam) Assay Kits. Liver glutathione sulfhydryl (GSH) measurements were performed using Glutathione Colorimetric Detection Kit (EIAGSHC, Thermo Fisher). All colorimetric assays were performed according to the manufacturer's protocol.
Livers were fixed for 48 h at room temperature (RT) in 10% neutral-buffered formalin (NBF), dehydrated, embedded in paraffin blocks and sectioned at 7 μm. Sections were stained with H&E according to standard protocol and examined by light microscopy.

[3] = system: APAP overdose acute liver injury; assay: Severe APAP overdose in mice, anti-IL11Rα antibody (X209) 16 h before; format: in vivo, mouse; details: 20 mg/kg IP 16 hours before APAP 400 mg/kg
[4] = system: APAP overdose acute liver injury; assay: Severe APAP overdose in mice, X209 10 h after; format: in vivo, mouse
Protocol: Mice were euthanized at 24, 36 and 48 hours. Serum ALT levels were analysed as described in Example 4.
Livers were harvested, and fixed as described in Example 4, and digital photographs were taken.
Western blots were also performed on protein extracts prepared from the livers of the mice.

[5] = system: primary human hepatocytes; assay: APAP-challenged primary human hepatocytes with X209; format: cell-based; details: APAP 20 mM, X209 2 μg ml^-1, 24 h
Excerpt: PI^+ve cells were quantified with the flow cytometer (Fortessa, BD Biosciences) and analyzed with FlowJo version 7 software (TreeStar).

lethal APAP overdose = assay: Lethal APAP overdose in mice, X209 10 h after; format: in vivo, mouse; details: for gross liver morphology / serum ALT levels versus normal (saline) control mice: day 8 after APAP 550 mg/kg, 20 mg/kg 10 h after
Protocol: Mice were euthanized at 24 hours and 192 hours (8 days). Serum ALT levels were analysed as described in Example 4. Livers were harvested, and fixed as described in Example 4, and digital photographs were taken.

human hepatocytes [6] = assay: APAP-mediated hepatocyte death, Annexin V/PI flow cytometry; details: APAP 20 mM, 24 hours; X209 2 μg/ml
Protocol: Cells were serum-starved for 16 hours prior to their used in experiments, by culture in serum-free hepatocyte medium.
Hepatocytes were then stained using the FITC Annexin V/Dead Cell Apoptosis Kit (V13242, Thermo Fisher) according to the manufacturer's instructions, and Annexin V-FITC/PI-stained cells were analysed by flow cytometry using a BD LSRFortessa flow cytometer (BD Bioscience). 10,000 cells were analyzed per sample. Data was analyzed using FlowJo version 7 software.

[7] = system: APAP-induced liver injury; assay: Mouse model of APAP-induced liver injury, anti-IL-11Rα antibody 16 h prior to APAP (Example 2)
Protocol: Liver samples were excised and fixed for 48 hours at room temperature in 10% neutral-buffered formalin (NBF), dehydrated, embedded in paraffin blocks and sectioned at 7 μm. Sections were stained with Hematoxylin&Eosin (H&E) according to standard protocol and examined by light microscopy.

AILI [8] = assay: X209, NAC or NAC+X209 3 h after APAP in mice
Protocol: as §1, §2
Western blots were carried out from hepatocyte and liver tissue lysates. Hepatocytes and tissues were homogenized in radioimmunoprecipitation assay (RIPA) buffer containing protease and phosphatase inhibitors (Thermo Fisher), followed by centrifugation to clear the lysate. Protein concentrations were determined by Bradford assay (Bio-Rad). Equal amounts of protein lysates were separated by SDS-PAGE, transferred to PVDF membrane, and subjected to immunoblot analysis for the indicated primary antibodies. Proteins were visualized using the ECL detection system (Pierce) with the appropriate secondary antibodies.

[9] = 20 mg/kg 10 h after APAP 400 mg/kg
[10] = 20 mg/kg IP 10 hours after APAP 400 mg/kg
[11] = listed as Antagonist antibody inhibitor of IL-11 mediated signalling
[12] = 10 mg/kg IP 16 hours prior to APAP 400 mg/kg

T1 sequence (Q9NPH5 whole entry): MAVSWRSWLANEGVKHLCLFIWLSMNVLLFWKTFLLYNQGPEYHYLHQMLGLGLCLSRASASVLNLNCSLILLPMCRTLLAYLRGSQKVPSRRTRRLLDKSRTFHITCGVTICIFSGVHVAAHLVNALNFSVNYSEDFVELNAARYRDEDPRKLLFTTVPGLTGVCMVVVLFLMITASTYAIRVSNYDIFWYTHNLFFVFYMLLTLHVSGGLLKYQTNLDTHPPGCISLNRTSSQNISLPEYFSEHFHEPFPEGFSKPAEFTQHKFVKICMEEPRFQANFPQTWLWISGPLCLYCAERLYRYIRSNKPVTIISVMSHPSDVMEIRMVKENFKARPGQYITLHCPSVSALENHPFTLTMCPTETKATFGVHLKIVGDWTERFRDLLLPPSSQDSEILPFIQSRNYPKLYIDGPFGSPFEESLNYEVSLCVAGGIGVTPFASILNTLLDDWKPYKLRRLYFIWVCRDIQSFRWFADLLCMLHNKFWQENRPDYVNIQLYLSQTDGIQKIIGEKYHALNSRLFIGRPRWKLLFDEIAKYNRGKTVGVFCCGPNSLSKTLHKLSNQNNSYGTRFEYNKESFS
T1 sequence (P13498 2-195 partner limits assumed): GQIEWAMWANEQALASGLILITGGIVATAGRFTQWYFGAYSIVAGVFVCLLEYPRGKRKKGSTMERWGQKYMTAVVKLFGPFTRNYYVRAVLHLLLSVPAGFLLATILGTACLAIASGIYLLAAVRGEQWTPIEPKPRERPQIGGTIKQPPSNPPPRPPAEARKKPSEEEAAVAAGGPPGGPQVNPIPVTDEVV

CN(C)c1cccc(-c2c3c(=O)n(-c4ccccc4Cl)[nH]c3cc(=O)n2C)c1 [GKT-13781]
IL11-stimulated GSH depletion, CASP3 activation and cell death (NOX4): prevented IL11-stimulated GSH depletion, CASP3 activation and cell death in a dose-dependent manner

B1: X209: antagonist (neutralizing) anti-IL11Rα antibody (Widjaja et al., Gastroenterology 2019; Aldevron) (antibody, V domains shown)
VH: QVQLQQPGAELVRPGSSVKLSCKASGYTFTNYWMHWLKQRPVQGLEWIGNIGPSDSKTHYNQKFKDKATLTVDKSSSTAYMQLNSLTSEDSAVYYCARGDYVLFTYWGQGTLVTVSA
VL: DIVLTQSPATLSLSPGERATLSCRASQSISNNLHWYQQKSHEAPRLLIKYASQSISGIPARFSGSGSGTDFTLSFSSLETEDFAVYFCQQSYSWPLTFGQGTKLEIK
levels of p-ERK and pJNK (human hepatocytes [1]): substantially reduce the levels of p-ERK and pJNK | centrilobular necrosis, histology (AILI [2]; 10 mg kg^-1 16 h prior to APAP): limited histological evidence of centrilobular necrosis | hepatic GSH levels (AILI [2]; 10 mg kg^-1 16 h prior to APAP): largely restored hepatic GSH levels | reduction of serum markers of liver damage (AILI [2]; 10 mg kg^-1 16 h prior to APAP 400 mg kg^-1): over 70% | hepatocyte necrosis, H&E [3]: substantially less hepatocyte necrosis | serum ALT levels ([3]; 24 hours after APAP): substantial reduction in serum ALT levels | EdU staining, nuclei with recent DNA synthesis [4, 9]: very large numbers of nuclei with evidence of recent DNA synthesis | cleaved CASP3 in liver [4, 9]: reduction in cleaved CASP3 at 24 h | liver damage (gross anatomy, histology, serum IL11, ALT and AST levels) [4, 9]: largely reversed liver damage by the second day after APAP | liver regeneration markers (PCNA, Cyclin D1/D3/E1, p-RB) [4, 9]: strong upregulation of PCNA, Cyclin D1/D3/E1, and phosphorylation of RB | gross liver morphology [4, 10]: restore gross liver morphology | hepatic ERK and JNK activation (p-ERK, pJNK1, pJNK2), western blot [4, 10]: substantially reduced the levels of p-ERK, pJNK1 and pJNK2; also recorded: effectively blocked ERK and JNK activation | serum ALT levels ([4]; 20 mg/kg IP 10 hours after APAP 400 mg/kg, 24, 36 and 48 hours): substantial reduction in serum ALT levels | APAP-induced NOX4 upregulation and depletion in hepatocyte GSH levels [5]: blocked | CASP3 cleavage, cell death, ERK and JNK activation [5]: inhibited CASP3 cleavage and cell death, as well as ERK and JNK activation | survival by the study end (lethal APAP overdose; 20 mg/kg 10 h after lethal APAP 550 mg/kg, 8 days): 90% | survival relative to IgG-treated controls (lethal APAP overdose; 20 mg/kg IP 10 hours after APAP 550 mg/kg, monitored 8 days): significantly improved survival | gross liver morphology (lethal APAP overdose): normal liver morphology | serum ALT levels versus normal (saline) control mice (lethal APAP overdose): comparable to controls | gross liver morphology (lethal APAP overdose; [11]): restore gross liver morphology | serum ALT levels versus normal (saline) control mice (lethal APAP overdose; [11]): not significantly different | proportion of dead hepatocytes (human hepatocytes [6]): substantially reduce the proportion of dead hepatocytes | APAP-induced loss in liver mass (liver index) [7, 12]: prevent APAP-induced loss in liver mass | centrilobular necrosis, H&E liver histology [7, 12]: reduced | ALT levels lower compared to IgG control ([7]; 10 mg/kg IP 16 hours prior to APAP 400 mg/kg, 24 hours post-APAP): 55% | mobility and activity of the mice ([7]; 24 hours post-APAP treatment): normal mobility and activity | JNK and ERK activation (AILI [8]; 2.5-10 mg kg^-1 3 h after APAP): Reduced JNK and ERK activation | markers of liver damage and hepatic GSH levels (AILI [8]; 2.5-10 mg kg^-1 3 h after APAP): dose-dependent improvements in markers of liver damage and in hepatic GSH levels | ALT reduction (AILI [8]; 3 h after APAP, NAC 500 mg kg^-1, X209 5 mg kg^-1): 47%
